Target: RNA polymerase (RNAP), core enzyme without sigma factor (E. coli (endogenous in the cell-free extract))

Kσ70: dissociation constant obtained by fitting a nonlinear ODE model to GFP/mRNA time-series responses of the pTar-tetO combinatorial promoter in E. coli TX-TL cell-free extract (29°C) [pM] | Kσ28: dissociation constant obtained by fitting a nonlinear ODE model to GFP/mRNA time-series responses of the pTar-tetO combinatorial promoter in E. coli TX-TL cell-free extract (29°C) [nM] | Substance
0.0018 | – | sigma factor 70 (from UniProt P00579 1-613) (natural protein)
– | 0.0053 | sigma factor 28 (from UniProt P0AEM6 1-239) (natural protein)

Source: publication PMC7445770
